assay: yeast display, Sf9 membrane polyspecificity reagent, FACS + sequencing; frameworks hold sequencing errors
How it was run: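 Galactose-induced (36–48 hours) yeast carrying a synthetic nanobody display library were exposed to 10% biotinylated, detergent-solubilized Sf9 membrane reagent at 4 °C for 1 hour. FACS followed streptavidin microbead enrichment, using low and high (top ~1%) gates for expression (anti-HA) and reagent binding (streptavidin). Colony PCR, MiSeq 2 × 250 sequencing and CDR-length filtering followed. Labels for polyreactivity reflect the gate of origin.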

| Sequence | polyreactivity (PSR sort gate) |
| --- | --- |
| QVQLVESGGRLVQAGGSLRLICAASGFTFGAYAMGWYRQAPGKERELVATIPYSGDSTYYADSVKGRFTISRDNAKNTVYLQMNSLKPEDTSVYYCAAYSTEGCGSPDWFESFDYWGQGTLVTVSS | low polyreactivity |
| QVQLVESGGRLVQAGGSLRLICAASGFTFWYYAIGWYRQAPGKESEFVASISWNGGRTYYADSVKGRFTISRDNAKNTVYLQMNSLKPEDTAVYYCATRVIYSFTDFKGDYWGQGTQVTVSS | high polyreactivity |
| QVQLVESGGRLVQAGGSLRLSCAASGFIFFTYAMGWYRQAPGKERELVAVITRGGSTYYADSVKGRFTISRDNAKNTVYLQMNSLKPEDTAVYYCAARRYRYFDGTVPLDYWGQGTQVSVSS | high polyreactivity |
| QVQLVESGGRLVQAGGSLRLSCAASGFIFRKYAMGWYRQAHGKVRELVAGIDWSGCRTYYADSVKGRFTISRDNAKNTVYLQMNSLKPEDTAVYYCNSVFRARPDYDYWGVGTQVTVSS | high polyreactivity |
| QVQLVESGGRLVQAGGSLRLSCAASGFTFARYTMGWYRQAPGKERELVAAISSRGSSTYYADSVKWRFTISRDNAKNTVYLQMNSLKPEDTAVYYCGAPPRYGYDYWGQGTQVTVSS | high polyreactivity |
| QVQLVESGGRLVQAGGSLRLSCAASGFTFNYNAMGWYRQAPGKERELVAAISRSGGSTYYADSVMGRFTISRDNAKNTFYLQMNSLKPEDTAVYYFAAVRDIGKYGYWGQGTQVTVSS | high polyreactivity |
| QVQLVESGGRLVQAGGSLRLSCAASGFTYSPYAMGWYRQAPWKESELVAAITSSGGSTYYADSVKGRFTISRDNANNSVYLQMKSLKPEDTAVYYSAADYGYKYYWRYGYWGQGTQVTVSS | high polyreactivity |
| QVQLVESGGRLVQAGGSLRLSCAASGITFYYYAMGWYRQAPGKERELVAAISVSGGSTYYADSVKGRFTISRDNAKNTVYLQMNSLKPEDTAVYYCAAADLLSYTYPEYDYWGQGTQVTVSS | low polyreactivity |
| QVQLVESGGRLVQAGGSLRLSCAASGLIFAPYAMGWYRQAPGKEWELVAAISSSGTSTYYADSVKGRFTISRDNAKNTVYLQMNSLKPEDTAVYYCAAVYWTFWGTIATRYDYWGQGTQVTVSS | high polyreactivity |
| QVQLVESGGRLVQAGGSLRLSCAASGLIIDYYTMGWYRQAPGKERELVAAINKSGGSTYADSVKGRFTISRDNAKNTVYLQMNCLKPEDSAVYYCAAEVDYSYWPEYSRKYYYWGEGTQVTVSS | low polyreactivity |
| QVQLVESGGRLVQAGGSLRLSCAASGLTLFRYDQGWYRQAPGKERELVAAIDYGGGTYYADSVKGRFTISRDNAKNTVYLQMNSLKPEDTAVYYCAVEPEYKYYEGDYWGQGTQVTVSS | low polyreactivity |
| QVQLVESGGRLVQAGGSLRLSCAASGRIFGAYAMGWYRQAPGKERELVAAINSGGSTFYADSVKGRFTISRDNAKNTVYLQMNRLKPEDTAVYYCAKRSYDYRRYSWGQGTQVTVSS | high polyreactivity |
| QVQLVESGGRLVQAGGSLRLSCAASGRIFNYYDMGWYSQAPGKERELVAAINYSGGSTYYADSVKGRFTISRDNAKNTVSLQMNSLKAEDTAVYYCAADGYYYYCYGTTDQDDYWGLGTQVTVSS | low polyreactivity |
| QVQLVESGGRLVQAGGSLRLSCAASGRIFRYYTMGWYRQAPGKERELVAAITRRGGITNYADSVKGRFTISRDNAKNTVYLQTNSLKPEDTAVYYCAAKYVSQGYDYWGQGTQVTVSS | high polyreactivity |
| QVQLVESGGRLVQAGGSLRLSCAASGRIFTGSNVMGWYRQAPGKEREFVAVINSGGGSTYYADSVKGRFTISRDNAKNTVYLQMNSLKPEDTAVYYCAADVGGWGYYDWVQGTQVTVSS | low polyreactivity |
| QVQLVESGGRLVQAGGSLRLSCAASGRIFVYNAMRWYRQAPGKERELVASITSSGGSTYYADSVKGRFTISRDNAKNTVYLQMNSLKPEDTAVYYCAADVQPDTRSTPEMDYWGQGTQVTVSS | low polyreactivity |
| QVQLVESGGRLVQAGGSLRLSCAASGRIFYPYAMGWYRQAPGKERELVASISSSGDRTYYADSVKGRFTISRDNAKNTVYLQMNSLKPEDTAVYYCAARWRYTYYYWGQGTQVTVSS | high polyreactivity |
| QVQLVESGGRLVQAGGSLRLSCAASGRILRQYTMGWYRQAPGKERELVAGITGSDSSTYYADSVKGRFTISRDNAKNTVYFQMNSLKPEDRAVYYCGTYRWGTLASIYYYWGQGPQVTVSS | low polyreactivity |
| QVQLVESGGRLVQAGGSLRLSCAASGRTFNRNAMVWYRQAPGKERELVAAISRGGGGTYYADSVMGRFTISRDNAKNTVYLQMNSLKPEDTAVYYCNAAPYYVMYLLWSSNTYDYWGQGTQVTVSS | high polyreactivity |
| QVQLVESGGRLVQAGGSLRLSCAASGRTFRWYAMGWYRQAPGKEREVVAAITFSGGSTYYADSVKGRFTISRDIAKNTVYLQMNSLKPEDTAVYYCNAVYYRRKEYDYWGQGTQVTVSS | high polyreactivity |
| QVQLVESGGRLVQAGGSLRLSCAASGRTFSTYDMGWSRQAPGKERELVAAITSTGDTPYYADSVKGRFTISRDTAKNTVYLQLNSLKPEDTAVYYCAAYASWHQWIYAFYGLDYWGQGTQVTVSS | low polyreactivity |
| QVQLVESGGRLVQAGGSLRLSCAASGRTFYGYAMGWYRQAPGKEREFVAAISVGGGSTYYADSVKGRFTISRDKAKNTVYLQMNSLKPEDTAVYYCAAYTRYWSYGYWGQGTQVTVSS | high polyreactivity |

| Sequence | polyreactivity (PSR sort gate) |
| --- | --- |
| QVQLVESGGRLVQAGGSLRLSCAASGRTIYSNTMGWYRQAPGKEREFVAAIPSIVGSTYYADSVKGRFTISRDNAKNTVYLQMNSLKPEDTAVYYCAVTDYYSYLLRYDSWGQGTQVTVSS | low polyreactivity |
| QVQLVESGGRLVQAGGSLRLSCAASGSIFIPNAMGWYRQAPGKERELVAAITVSGGITYYADSVKGRFTISRDNAKNSVYLQMNSLKPEDTAVYYCAADFTIYYILEYDYWGQGTQVTVSS | low polyreactivity |
| QVQLVESGGRLVQAGGSLRLSCAASGSIFRSYAMGWYRQAPGKERELVATISSSTGSTYYADSVKGRFTISRDNAKNTVYLQRNSLKPEDTAVYYCNAQRRWSIYGYFYYWGQGTQVTVSS | high polyreactivity |
| QVQLVESGGRLVQAGGSLRLSCAASGSIFSGYTMGWYRQAPGKERELVAAISSDGSTTYADSVKGRFTISRDNAKNTVYLQLNSLKPEDSAVYYSAAYPYWDGSYGGYDYWGQGTQVTVSS | low polyreactivity |
| QVQLVESGGRLVQAGGSLRLSCAASGSTFGPYTMGWYRQAPGKERELVATISSGGSTYYADSVKGRFTISRDNAKNTVYLQMNSLKPEDTAVYYCAARYWSIYDYWGQGTQVTVSS | low polyreactivity |
| QVQLVESGGRLVQAGGSLRLSCAASGSTFGWYTMGWYRQAPGKERELVAAITSRGTRTSYADSVKARFTISRDNAKNTVYLQMNSLKPEDTAVYYCAARVFRGLGEYYWGQGTQVTVSS | high polyreactivity |
| QVQLVESGGRLVQAGGSLRLSCAASGSTFPLYARGWCRQAPGKERELVAAITGGGGRTYYADSVKGRFTISRDNAKNTVYLQMNSLKPEDTGVYYCNAVVYLTNYWYDYWGQGTQVTVSS | low polyreactivity |
| QVQLVESGGRLVQAGGSLRLSCAASGSTFVYYAMGWYRQAPGKERELVASINSGGSTYYADSVKGRFTISRDNAKNTVYLQMNSLKQEDTAVYDCAATSIPPSVHLQDPTYDYWGQGTQVTVSS | low polyreactivity |
| QVQLVESGGRLVQAGGSLRLSCAASGSTIKSYAMGWYRQAPGKERELVAGITSGDSTNYADSVKGRFTISRDNAKNTVYFQMNSLKPDDTAVYYCNAVTQARYYYWGQGYQVTVSS | low polyreactivity |
| QVQLVESGGRLVQAGGSLRLSCADSGRTFYLYAMGWYRQAPGKEREFVADITFSGASTDYAASVKGRFTISRDNAKNTVYLQMNSLKPEDTAVYYCNADIAHVCWWSYPTDDYWGQGTQVTVSS | high polyreactivity |
| QVQLVESGGRLVQAGGSLRLSCAPSGIIFIWNTMGWYRQAPGKESEFVAAISRSGSGTSYADSVKGRFTISRDNAKNTVYLQMNSLKPEDTAVYYCAARLECPYDMYYWGQGTQVTVSS | low polyreactivity |
| QVQLVESGGRLVQAGGSLRLSCAPSGRIFWAYAMGWYRPAPGKERELVAAITSGGSTYYADSVKGRFTISRDNAKNTVYLQMNSLKPEDTAVYYCAVGSKWVDDSPEDVYWGQGTQVTVSS | low polyreactivity |
| QVQLVESGGRLVQAGGSLRLSGAASGSTIQTNVMGWYRQAPGKERELLAAISSGGSTNYADSVKGRFTISRDNAKNNVYLQMNSLKPEDTADYYCAKRWPYFRRGKDGYCGQGTQVTVSS | low polyreactivity |
| QVQLVESGGRLVQAGGSLRLSSAASGSTFSFYVMRWYRQAPGKERELVAAISWSSVGTYSADSVKGRFTISRDNAKNTVYLQMNSLKPEDTAVYYCAADSYRRVAKHGYWGQGTQVTVSS | high polyreactivity |
| QVQLVESGGRLVQAGGSLSLSCASSGRIFWTYAMGLTRQAPGEERELVAAINSSDGTYYADSVKGRFTISRDNAKNTVYLQKNSLKPEDTAVYYCNADRDALVGYDYDYWGQGTQVTVSS | low polyreactivity |
| QVQLVESGGRLVQAGGTLPLSSAASGLIFGYYAMGFYIQAPGKERELDADISSGGSTNYADSVKGRFTISRENAKNTVYLQMNRLTPEDTAVFYCAARYSRWFGYCGQGTQVTVSS | high polyreactivity |
| QVQLVESGGRLVQAGGTLRLSCAASGSICGFNAMGWYRQAPGKERELVAAINNGGSKNYADSVKGRFTISRDNAKITVYLQMKILKQEDTEVYYCAARLNYIRRGYWGQGTQVTVSS | high polyreactivity |
| QVQLVESGGRLVQAGVILRLSCAASGSTFAPYAMGWYRQSPGKESELVATISASGGTTYYADSVKGRFTISRDNAKNTVYLQMNSLKPEDTAVYYCNADSNWYDQWNYYGLNDYWGQGTQVTVSS | low polyreactivity |
| QVQLVESGGRLVQAGVSLRISSAASGYISRVYAMGWYRHAPGKERELVAAITRSTTYYADSVKGRFTISRDNAKNTVYLQMNSLKPEDTAVDYCNADWASPGQVRMYYWGQGTQVTVSS | high polyreactivity |
| QVQLVESGGRLVQARGSLRLICAASGLIIAYYTMGWYRQAPGKEREFVAVIDWIGVSTYYADSVKGRFTISRDNAKNTVYLQMNSLKPEDTAVYYCNADNAFPSPKSSLDYWGQGTQVTVSS | low polyreactivity |
| QVQLVESGGRLVQARGSLRLSCAASGRIFYDYAMGCYRQAPGKESELVAAISGSGGSTYYADSVKGRFTISRDNAKNTVYLQMNSLKPEDTAVYYCNRYTTRYYPGGDYWGQGTQVTVSS | high polyreactivity |

— the nanobody polyreactivity screen of Harvey et al. (2022)
